Data published in the MegaScale stability set (Tsuboyama et al. 2023).

B1: HEEH_KT_rd6_3632 (parent)
chain: DAEELIELVERALKEGREIILLGVRITSEEAGKWFIEWIRRFL

Variants of: B1
Assay: folding stability dG (cDNA display proteolysis); higher = more stable
Conditions: PBS, room temperature

Folding stability dG [kcal/mol], by site and new letter:
L5: I 3.44, E 2.77, S 2.85, T 3.08, F 3.6, V 3.23, G 2.88, W 3.67, N 2.72, K 2.83, M 3.56, Q 2.83, C 3.74, D 3.02, R 2.79, Y 3.47, A 2.97, P 2.82, H 2.83
R11: A 3.52, H 3.45, N 3.51, I 3.62, M 3.41, K 3.65, D 3.28, E 3.38, Q 3.54, F 3.16, G 3.19, P 3.08, L 3.47
D1: Q 3.93, N 3.96, V 4.07, A 3.97, Y 4.26, M 4.11, P 3.89, H 4.04, L 4.31, G 3.9, S 3.98, F 4.2, R 4.12, W 4.64, E 3.63, T 4, K 4.04, I 4.2
E3: D 3.85, R 4.16, M 3.73, Y 4.02, I 3.85, H 4.02, V 3.78, A 3.87, L 3.97, P 3.46, T 3.83, S 3.74, W 4.15, Q 3.94, N 3.87, F 4.06, K 3.8, G 3.69
E7: M 3.82, D 3.7, C 4.46, H 3.84, G 3.89, T 3.82, V 3.74, N 3.89, K 4.05, S 3.88, A 3.99, L 3.91, I 3.79, R 4.18, P 3.1, W 3.83, Q 3.79, F 3.74, Y 3.77
L8: M 3.69, S 3.08, I 3.61, Q 3.49, K 3.46, F 3.77, A 3.47, D 2.92, Y 3.49, G 3.03, W 3.7, P 2.77, V 3.26, N 2.93, E 3.29, T 3.28, H 3.26, R 3.53
I6: C 3.95, W 3.99, H 3.29, L 3.62, M 3.3, Y 3.38, E 3.18, S 3.18, F 3.48, V 3.48, T 3.25, Q 3.16, D 3.2, R 3.38, N 3.11, G 3.18, P 3.08, A 3.38, K 3.24
E4: S 3.89, P 3.64, V 3.91, G 3.92, H 4.09, Y 4.24, Q 3.95, W 4.19, I 4.06, F 4.15, K 4.18, M 4.01, R 4.21, N 3.78, L 4.1, D 3.65, A 3.96, T 4.03, C 4.61
E10: W 4.21, I 4.3, P 2.64, V 3.99, Q 3.83, R 4.03, K 3.93, M 3.84, T 3.92, D 3.41, L 4.16, Y 3.81, S 3.62, F 3.69, G 3.28, A 3.63, N 3.82, H 3.78, C 4.65
A2: T 3.62, Q 3.55, Y 4.2, I 4.2, G 3.42
